{"source": "the supplement of paper PMC10567573", "parents": {"B1": {"name": "ZNF277 (parent)", "chain": "ILREELQKQRLREILEQQQQERND"}}}
{"variants_of": "B1", "experiment": "protein stability index of a GFP-peptide fusion (GPS, HEK-293T) (PSI 1-6); higher = more stable", "conditions": "c terminus: a fixed tail appended"}
{"variant": "I14V", "protein stability index": 4.25}
{"variant": "I14T", "protein stability index": 4.84}
{"variant": "I14E", "protein stability index": 4.85}
{"variant": "I14D", "protein stability index": 5.07}
{"variant": "I14Q", "protein stability index": 4.81}
{"variant": "I14P", "protein stability index": 5.11}
{"variant": "I14K", "protein stability index": 3.53}
{"variant": "I14Y", "protein stability index": 4.34}
{"variant": "I14R", "protein stability index": 3.49}
{"variant": "I14G", "protein stability index": 4.74}
{"variant": "I14C", "protein stability index": 4.13}
{"variant": "I14A", "protein stability index": 5.04}
{"variant": "I14F", "protein stability index": 3.5}
{"variant": "I14N", "protein stability index": 4.46}
{"variant": "I14L", "protein stability index": 3.01}
{"variant": "I14M", "protein stability index": 4.3}
{"variant": "I14H", "protein stability index": 3.89}
{"variant": "L6Y", "protein stability index": 4.22}
{"variant": "Q9K", "protein stability index": 4.42}
{"variant": "Q9P", "protein stability index": 4.52}
{"variant": "Q9G", "protein stability index": 4.05}
{"variant": "Q9D", "protein stability index": 4.98}
{"variant": "Q9E", "protein stability index": 3.04}
{"variant": "Q9M", "protein stability index": 4.32}
{"variant": "Q9N", "protein stability index": 3.79}
{"variant": "Q9Y", "protein stability index": 3.9}
{"variant": "Q9H", "protein stability index": 5.05}
{"variant": "Q9I", "protein stability index": 4.18}
{"variant": "Q9F", "protein stability index": 4.12}
{"variant": "Q9V", "protein stability index": 4.15}
{"variant": "Q9S", "protein stability index": 4.41}
{"variant": "Q9W", "protein stability index": 3.53}
{"variant": "Q9L", "protein stability index": 4.41}
{"variant": "Q9T", "protein stability index": 4.01}
{"variant": "Q9R", "protein stability index": 4.41}
{"variant": "Q9C", "protein stability index": 4.41}
{"variant": "L15M", "protein stability index": 4.03}
{"variant": "L15F", "protein stability index": 4.22}
{"variant": "L15A", "protein stability index": 5.04}
{"variant": "L15P", "protein stability index": 4.54}
{"variant": "L15C", "protein stability index": 4.62}
{"variant": "L15R", "protein stability index": 4.82}
{"variant": "L15H", "protein stability index": 5.11}
{"variant": "L15K", "protein stability index": 4.37}
{"variant": "L15G", "protein stability index": 4.94}
{"variant": "L15D", "protein stability index": 4.77}
{"variant": "L15V", "protein stability index": 4.37}
{"variant": "L15I", "protein stability index": 4.48}
{"variant": "L15N", "protein stability index": 4.32}
{"variant": "L15T", "protein stability index": 4.67}
{"variant": "L15E", "protein stability index": 4.99}
{"variant": "L15S", "protein stability index": 4.99}
{"variant": "L15Y", "protein stability index": 4.18}
{"variant": "L15Q", "protein stability index": 5.14}
{"variant": "L15W", "protein stability index": 4.14}
{"variant": "R10V", "protein stability index": 4.07}
{"variant": "R10C", "protein stability index": 3.28}
{"variant": "R10A", "protein stability index": 4.38}
{"variant": "R10T", "protein stability index": 4.59}
{"variant": "R10E", "protein stability index": 4.83}
{"variant": "R10F", "protein stability index": 3.47}
{"variant": "R10P", "protein stability index": 4.83}
{"variant": "R10M", "protein stability index": 3.58}
{"variant": "R10S", "protein stability index": 4.7}
{"variant": "R10N", "protein stability index": 4.51}
{"variant": "R10D", "protein stability index": 5.47}
{"variant": "R10H", "protein stability index": 4.85}
{"variant": "R10Y", "protein stability index": 4.3}
{"variant": "R10W", "protein stability index": 3.23}
{"variant": "R10L", "protein stability index": 2.56}
{"variant": "R10K", "protein stability index": 4.59}
{"variant": "R10G", "protein stability index": 4.65}
{"variant": "R10I", "protein stability index": 3.41}
{"variant": "K8T", "protein stability index": 4}
{"variant": "K8M", "protein stability index": 4.12}
{"variant": "K8P", "protein stability index": 5.07}
{"variant": "K8R", "protein stability index": 3.66}
{"variant": "K8E", "protein stability index": 5.3}
{"variant": "K8S", "protein stability index": 4.81}
{"variant": "K8Q", "protein stability index": 4.98}
{"variant": "K8W", "protein stability index": 3.82}
{"variant": "K8L", "protein stability index": 3.63}
{"variant": "K8N", "protein stability index": 4.53}
{"variant": "K8A", "protein stability index": 4.7}
{"variant": "K8I", "protein stability index": 3.1}
{"variant": "K8D", "protein stability index": 4.43}
{"variant": "K8F", "protein stability index": 4.38}
{"variant": "K8V", "protein stability index": 4.07}
{"variant": "K8H", "protein stability index": 4.41}
{"variant": "K8C", "protein stability index": 3.96}
{"variant": "K8G", "protein stability index": 4.82}
{"variant": "K8Y", "protein stability index": 4.11}
{"variant": "R12F", "protein stability index": 4.23}
{"variant": "R12L", "protein stability index": 4.36}
{"variant": "R12K", "protein stability index": 4.6}
{"variant": "R12P", "protein stability index": 4.78}
{"variant": "R12V", "protein stability index": 4.41}
{"variant": "R12Q", "protein stability index": 4.72}
{"variant": "R12W", "protein stability index": 3.67}
{"variant": "R12G", "protein stability index": 5.05}
{"variant": "R12C", "protein stability index": 4.45}
{"variant": "R12E", "protein stability index": 5.08}
{"variant": "R12D", "protein stability index": 5.8}
{"variant": "R12Y", "protein stability index": 3.87}
{"variant": "R12A", "protein stability index": 4.73}
{"variant": "R12M", "protein stability index": 4.58}
{"variant": "R12H", "protein stability index": 4.14}
{"variant": "R12T", "protein stability index": 5.29}
{"variant": "R12I", "protein stability index": 4.15}
{"variant": "R12N", "protein stability index": 4.86}
{"variant": "Q7L", "protein stability index": 3.64}
{"variant": "Q7A", "protein stability index": 4.12}
{"variant": "Q7T", "protein stability index": 3.62}
{"variant": "Q7G", "protein stability index": 5.06}
{"variant": "Q7I", "protein stability index": 2.9}
{"variant": "Q7D", "protein stability index": 4.26}
{"variant": "Q7S", "protein stability index": 4.11}
{"variant": "Q7V", "protein stability index": 3.58}
{"variant": "Q7F", "protein stability index": 2.93}
{"variant": "Q7P", "protein stability index": 5}
{"variant": "Q7E", "protein stability index": 5.22}
{"variant": "Q7M", "protein stability index": 3.74}
{"variant": "Q7K", "protein stability index": 3.46}
{"variant": "Q7H", "protein stability index": 4.47}
{"variant": "Q7C", "protein stability index": 4.24}
{"variant": "Q7N", "protein stability index": 4.44}
{"variant": "Q7R", "protein stability index": 4.1}
{"variant": "Q7W", "protein stability index": 2.37}
{"variant": "E16F", "protein stability index": 3.66}
{"variant": "E16A", "protein stability index": 3.07}
{"variant": "E16D", "protein stability index": 4.61}
{"variant": "E13F", "protein stability index": 3.77}
{"variant": "E13G", "protein stability index": 4.54}
{"variant": "E13V", "protein stability index": 4.06}
{"variant": "E13M", "protein stability index": 4.01}
{"variant": "E13A", "protein stability index": 3.74}
{"variant": "E13N", "protein stability index": 4.05}
{"variant": "E13S", "protein stability index": 4.18}
{"variant": "E13Y", "protein stability index": 4.07}
{"variant": "E13K", "protein stability index": 4.22}
{"variant": "E13C", "protein stability index": 3.76}
{"variant": "E13P", "protein stability index": 4.56}
{"variant": "E13Q", "protein stability index": 4.22}
{"variant": "E13H", "protein stability index": 4.46}
{"variant": "E13L", "protein stability index": 3.75}
{"variant": "E13I", "protein stability index": 4.06}
{"variant": "E13R", "protein stability index": 4.11}
{"variant": "E13T", "protein stability index": 4.58}
{"variant": "L11M", "protein stability index": 4.91}
{"variant": "L11Q", "protein stability index": 5.05}
{"variant": "L11E", "protein stability index": 5.06}
{"variant": "L11I", "protein stability index": 4.52}
{"variant": "L11W", "protein stability index": 3.94}
{"variant": "L11D", "protein stability index": 4.8}
{"variant": "L11T", "protein stability index": 4.66}
{"variant": "L11S", "protein stability index": 4.68}
{"variant": "L11H", "protein stability index": 4.94}
{"variant": "L11K", "protein stability index": 4.31}
{"variant": "L11F", "protein stability index": 4.09}
{"variant": "L11Y", "protein stability index": 4.58}
{"variant": "L11G", "protein stability index": 5.22}
{"variant": "L11A", "protein stability index": 4.83}
{"variant": "L11R", "protein stability index": 4.37}
{"variant": "L11P", "protein stability index": 4.38}
{"variant": "L11V", "protein stability index": 2.73}
{"variant": "L11C", "protein stability index": 4.71}
{"variant": "L11N", "protein stability index": 4.76}
